Source: US8894997B2

Key:
[1] = target: 1918 HA displayed on virus-like particles, reconstituted 1918 virus or transfected mammalian cells (influenza A/South Carolina/1/18 (H1N1) virus)
[2] = target: HA of A/Mexico/4108/2009 virus (influenza A/Mexico/4108/2009 (H1N1) virus)
[3] = target: Recombinant A/South Carolina/1/1918 virus HA (influenza A/South Carolina/1/18 (H1N1) virus)
[4] = target: 1918 HA displayed on virus-like particles, reconstituted 1918 virus or transfected mammalian cells (influenza A/South Carolina/1/18 (H1N1) virus); remark: listed apart in the source
[5] = target: HA of influenza A/Swine/Iowa/15/30 (H1N1) virus (influenza A/Swine/Iowa/15/30 (H1N1) virus)
[6] = target: HA of influenza A/USSR/92/77 (H1N1) virus (influenza A/USSR/92/77 (H1N1) virus)
[7] = target: HA of influenza A/Weiss/43 (H1N1) virus (influenza A/Weiss/43 (H1N1) virus)

| Substance | HAI, reciprocal titer of serum (reciprocal titer) [1] | HAI, reciprocal titer of serum (reciprocal titer) [2] | Kd [3] | koff [3] | kon [3] | Specific HAI activity [4] | Specific HAI activity [5] | HAI, specific activity [1] | HAI, specific activity [2] | Neut Ab, specific activity [2] | Specific HAI activity [6] | specific neutralizing activity [6] | specific neutralizing activity [7] |
| --- | --- | --- | --- | --- | --- | --- | --- | --- | --- | --- | --- | --- | --- |
| Normal mouse serum (polyclonal serum or antibody) | < 10 | < 10 |  |  |  |  |  |  |  |  |  |  |  |
| mAb 1F1 (antibody) |  |  | 5.4 nM | 0.00017 s⁻¹ | 31000 M⁻¹ s⁻¹ | 0.08 µg/mL | 0.04 µg/mL | 0.04 µg/mL | > 5 µg/mL | > 5 µg/mL | 0.16 µg/mL | 0.88 µg/mL | 1.8 µg/mL |
